For data set [1], the system named is C57BL/6 mice given 2.5% DSS in drinking water. Put plainly: Concurrent (prophylactic) DSS model of inflammatory bowel disease (Example 4, Example 13A). The class given is in vivo, mouse. The conditions noted are these: for 4KDa-FITC signal in serum / Colon length: vs DSS+vehicle; for Colon length: FIG. 22A. As to the method: Specifically, the mice in Examples 4 and 5 were treated with dextran sodium sulfate (DSS), a chemical known to induce intestinal epithelial damage and thereby reduce intestinal barrier integrity and function. DSS mice are well-accepted models of colitis. In Example 4, mice were treated with SG-11 protein approximately concurrent with (6 hours prior to) administration of DSS. In Example 5, mice were treated with DSS for 6 days prior to treatment with SG-11 protein.
The graphs presented in Example 4 represent data pooled from 3 independent experiments, each using 10 mice (n=30). The SG-11 protein used in these experiments was the mature protein (no signal peptide) without an N-terminal tag and comprising the amino acid sequence of SEQ ID NO:3. For 2 experiments, the SG-11 protein consisted of SEQ ID NO:5; for the third experiment, the SG-11 protein consisted of SEQ ID NO:7.
Eight-week old C57BL/6 mice were housed 5 animals were cage and given food and water ad libitum for 7 days. Following the 7-day acclimation period, treatments were initiated concurrently with addition of 2.5% DSS to the drinking water. […] The mice were treated with 2.5% dextran sodium sulfate (DSS) in their drinking water for 6 days. Treatments were continued with SG-11 or Gly2-GLP2 twice a day (b.i.d.) in the morning and evening (every 8 and 16 hr) with i.p. injections at 50 nmoles/kg. Fresh 2.5% DSS drinking water was prepared every 2 days.
On day six, mice were fasted for four hours and then orally gavaged with 600 mg/kg 4KDa dextran labeled with fluorescein isothiocyanate (FITC) [4KDa-FITC]. One hour after the 4KDa-FITC gavage mice were euthanized, blood was collected and FITC signal was measured in serum. […] The magnitude of 4KDa-FITC dextran translocation observed for SG-11 was similar to the positive control of Gly2-GLP2. Results are shown in FIG. 3, and are presented as mean±SEM. The graph in FIG. 3 represents data pooled from 3 independent experiments (n=30).
SG-11 was also assessed for its effects on the levels of LPS binding protein (LBP) in the blood of the DSS animal with and without SG-11 administration. LPS binding protein (LBP), which has been linked to clinical disease activity in subjects with inflammatory bowel disease, was also measured by ELISA in the serum of mice tested in the DSS model described in Example 4. […] Results are shown in FIG. 4, and are presented as mean±SEM. The graph in FIG. 4 represents data pooled from 3 independent experiments (n=30).
Body weight was measured daily from mice included in the DSS model described in this Example. Percent change from starting weight on day 0 was determined for each mouse. […] Weight loss in mice treated with SG-11 at day 6 was similar to weight loss observed with Gly2-GLP2. The graph in FIG. 5 represents data pooled from two independent experiments (n=20).
Gross pathology observations were made in mice included in the concurrent DSS model performed in this Example. […] No differences in clinical scores were observed between mice given DSS and treated with either Gly2-GLP2 or SG-11. The scoring system used was: (0)=no gross pathology, (1)=streaks of blood visible in feces, (2)=completely bloody fecal pellets, (3) bloody fecal material visible in cecum, (4) bloody fecal material in cecum and loose stool, (5)=rectal bleeding. The graph in FIG. 6 represents data pooled from 3 independent experiments (n=30).
Colon length was measured in mice included in the DSS model described in Example 7. […] The graphs in FIGS. 8A and 8B represent data pooled from 3 independent experiments (n=30). Data are graphed as mean±SEM and are pooled from three independent experiments (n=30). Statistical analysis was performed by a one-way ANOVA followed by a Fisher's LSD multiple comparisons test.
Briefly, in the first DSS mouse model (Example 13A), mice were treated on day zero with test compound intraperitoneally (i.p.) and 6 hours later DSS treatment was initiated. […]

Data set [2] is described as follows: Stability in storage buffer formulations by analytical SEC (Example 11). The data set is classed as physicochemical. As to the method:
Although SG-11 protein is very stable at high temperature, forming aggregations at 37° C. in a week could be the problem at the downstream processing stage. Deamidation of asparagine residues found by LC/MS/MS are also a risk factor. In order to improve the manufacturability of a protein comprising SEQ ID NO:3 or variants thereof, the protein depicted as SG-11 (SEQ ID NO:7) was mutated to contain the following 4 substitutions: N53S, N83S, C147V and C151S. This variant with 4 substitutions is designated as SG-11V5, provided herein as SEQ ID NO:19. The stability of purified SG-11 and SG-11V5 was tested in different storage buffer formulations. SG-11V5 (SEQ ID NO:19) has about 98.3% sequence identity to SEQ ID NO:7.
Specifically, purified SG-11 (SEQ ID NO:7) was incubated in pH 5.2 (FIGS. 15A, 15B and 15C), pH 7.0 (FIGS. 15D, 15E and 15F) and pH 8.0 (FIGS. 15G, 15H and 15I). Effect of additives was also tested at the 3 different pH conditions: 150 mM NaCl (FIGS. 15A, 15D and 15G); 150 mM NaCl and 100 mM arginine (FIGS. 15B, 15E and 15H); and 150 mM NaCl and 0.5 M sorbitol (FIGS. 15C, 15F and 15I). Stability was analyzed by analytical SEC. Arrow heads indicate the retention time of the monomeric form.
SG-11V5 (SEQ ID NO:19) was incubated in pH 5.2 (FIGS. 16A, 16B and 16C), pH 7.0 (FIGS. 16D, 16E and 16F) and pH 8.0 (FIGS. 16G, 16H and 16I). Effect of additives was also tested at the 3 different pH conditions: 150 mM NaCl (FIGS. 16A, 16D and 16G); 150 mM NaCl and 100 mM Arg (FIGS. 16B, 16E and 16H); and 150 mM NaCl and 0.5 M sorbitol (FIGS. 16C, 16F and 16I). Stability was analyzed by analytical SEC. Arrow heads indicate the retention time of the monomeric form.

B1: SG-11 (SEQ ID NO:7): Recombinant SG-11 with N-terminal methionine, 233 amino acids, no N-terminal tag (protein)
chain: MLEGEESVVYVGKKGVIASLDVETLDQSYYDETELKSYVDAEVEDYTAEHGKNAVKVESLKVEDGVAKLKMKYKTPEDYTAFNGIELYQGKVVASLAAGYVYDGEFARVEEGKVVGAATKQDIYSEDDLKVAIIRANTDVKVDGEICYVSCQNVKLTGKDSVSIRDGYYLETGSVTASVDVTGQESVGTEQLSGTEQMEMTGEPVNADDTEQTEAAAGDGSFETDVYTFIVYK
Take B1: in data set [1] (Example 13A, 50 nmoles/kg i.p. twice a day, p=0.04, FIG. 18A), the “4KDa-FITC signal in serum” value is on record as “significantly reduced the 4KDa-FITC signal”. Besides, the Colon length entry in data set [1] (Example 13A) is “significant increase in the colon length”. Besides, the “Aggregate formation (analytical SEC)” value in data set [2] (100 mM arginine at pH 7.0 (150 mM NaCl), FIG. 15) was “greatly suppressed”. The “Behaviour at pH 5.2” value in data set [2] is reported as “precipitated”.

B2: SG-11V5: SG-11 variant SEQ ID NO:19 comprising N53S, N83S, C147V, C151S with respect to SEQ ID NO:7 (protein)
chain: MLEGEESVVYVGKKGVIASLDVETLDQSYYDETELKSYVDAEVEDYTAEHGKSAVKVESLKVEDGVAKLKMKYKTPEDYTAFSGIELYQGKVVASLAAGYVYDGEFARVEEGKVVGAATKQDIYSEDDLKVAIIRANTDVKVDGEIVYVSSQNVKLTGKDSVSIRDGYYLETGSVTASVDVTGQESVGTEQLSGTEQMEMTGEPVNADDTEQTEAAAGDGSFETDVYTFIVYK
Take B2: the “Gross pathology score (0-5)” value in data set [1] (Example 13, 160 nmoles/kg, dose dependent effect, p<0.002, FIG. 21) was “significant improvement”. For the same molecule, in data set [1] (Example 13, FIG. 18B, p=0.21), the “4KDa-FITC signal in serum” value was “also reduced the 4KDa-FITC signal, although the difference was not reach statistical significance”. The “LBP in serum (ELISA)” value in data set [1] (Example 13A, 158 nmoles/kg i.p. twice a day, p=0.003, FIG. 19A) is given as “significant reduction in LBP production”. Moreover, the Body weight result in data set [1] (Example 13A, 158 nmoles/kg, day 6, FIG. 20A) is on record as “significant improvement in body weight”. For the same molecule, the Colon length result in data set [1] (Example 13A) is “significant increase in the colon length”. Moreover, the “Dose dependence of effect on colon length” value in data set [1] (prophylactic DSS model, 16, 50 and 158 nmoles/kg) is on record as “no dose-dependent effect on colon length”. Besides, the “Aggregation (analytical SEC)” value in data set [2] (all conditions tested: pH 5.2, 7.0, 8.0, 150 mM NaCl ± 100 mM arginine or 0.5 M sorbitol, FIG. 16) is reported as “did not show large amount of aggregation”. In addition, the “Behaviour at pH 5.2” value in data set [2] is “precipitated”. In addition, the “Stability compared with SG-11” value in data set [2] (pH 7.0 and pH 8.0) is listed as “improved stability”. The “Small aggregation peak at 1.34 mL (analytical SEC)” value in data set [2] (with 100 mM arginine or 0.5 M sorbitol) is “suppressed”.

The values are drawn from patent US11505583B2, “Proteins for the treatment of epithelial barrier function disorders” (Second Genome, Inc., priority 2018, dated 2022).
